Where “and” joins values, the source holds several entries; their conditions need not be identical. Identical values can stand only once.

This assay deals with T1, wild-type human ACE2 peptidase domain (PD) (human, UniProt Q9BYF1 19-615).
T1 construct: also called ACE2/WT; ACE2 WT
The experiment in a line: SPR. As to conditions: both partners purified.

T1 sequence (Q9BYF1 19-615): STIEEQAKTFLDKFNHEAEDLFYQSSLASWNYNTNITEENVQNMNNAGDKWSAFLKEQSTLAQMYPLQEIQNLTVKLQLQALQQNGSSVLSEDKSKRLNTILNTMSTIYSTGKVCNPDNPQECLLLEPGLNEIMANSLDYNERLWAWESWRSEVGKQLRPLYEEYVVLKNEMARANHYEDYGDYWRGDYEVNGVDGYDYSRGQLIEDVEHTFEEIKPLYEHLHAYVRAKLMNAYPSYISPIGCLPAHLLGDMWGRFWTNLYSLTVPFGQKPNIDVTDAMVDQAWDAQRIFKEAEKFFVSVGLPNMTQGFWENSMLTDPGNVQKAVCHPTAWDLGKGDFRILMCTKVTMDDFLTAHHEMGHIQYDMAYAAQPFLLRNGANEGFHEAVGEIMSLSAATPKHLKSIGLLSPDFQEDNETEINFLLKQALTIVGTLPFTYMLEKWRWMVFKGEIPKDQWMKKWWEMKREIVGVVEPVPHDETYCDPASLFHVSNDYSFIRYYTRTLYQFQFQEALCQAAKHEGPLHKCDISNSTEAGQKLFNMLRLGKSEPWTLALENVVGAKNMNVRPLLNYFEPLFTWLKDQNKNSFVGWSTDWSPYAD

B1: SARS-CoV spike receptor-binding domain (S-RBD), wild-type (domain or fragment)
chain: not shown
Usually Kd stands for the equilibrium constant for the complex coming apart. A high value points to weaker binding. Consider B1, for which the Kd is 523 nM and 971 nM and 500 nM.

(Values after paper PMC8444507 (Signal Transduction and Targeted Therapy, 2021).)
